Data on one protein can be found in PMC7467640.

In data set [1] the target is His224 (UniProt position 224, …). Nature of the data set: potentiometry. To be noted: 298 K; 0.1 M (NaClO4); none (4 mM HClO4, titrated with carbonate-free NaOH); metal-free peptide, 0.5 mM, argon atmosphere.
The target of data set [2] is His239 (UniProt position 239, …). As to the kind of experiment: potentiometry. As to conditions: 298 K; 0.1 M (NaClO4); none (4 mM HClO4, titrated with carbonate-free NaOH); metal-free peptide, 0.5 mM, argon atmosphere.

B1: ZnuA fragment 223-240 (secondary metal binding site peptide), Ac-GHFTVNPEIQPGAQRLHE-NH2 (Escherichia coli) (peptide)
chain: GHFTVNPEIQPGAQRLHE
In the case of B1, the pKa in data set [1] was 6.76; in data set [2], 6.16.

A word on the pKa: it is the pH at which an ionisable group is half protonated. High values mean a group that holds its proton tightly, low ones a group that gives up its proton readily.
